The text below walks through data of US7132274B2, “Method for identifying modulators of CLK-1 and UbiF activity” (priority 2003, dated 2006).

Positions count from the first letter of the chain named. In names and notes the source's numbering stands.

In the test the test system is E. coli JF496 (ubiF411). The test is described as follows: JF496 complementation (growth rescue) assay. The note with it: for rescue of bacterial growth under selective condition: compared with vector pET16 control; for Activity in JF496 system: C. elegans CLK-1 variants expressed in JF496, growth rate relative to wild type CLK-1. The class given is cell-based. From the text: JF496 is useful for complementation assays using eukaryotic clk-1. As with all other ubi mutants, JF496 has a weak growth in liquid culture, and cannot use succinate as a unique carbon source. These characteristics were used to develop a gain-of-function assay, where JF496 was transformed with a eukaryotic clk-1 (here from C. elegans) and then wild-type growth was identified. Transgenic E. coli ubiF (Kwon et al., 2000 FEMS Microbiol Lett, 186, 157–161), and clk-1 from proteobacteria (Stenmark et al., 2001 J Biol Chem, 276, 33297–33300) have been tested in JF496.
Growth conditions—For complementation assays, plasmids are freshly transformed by electroporation into E. coli JF496 ubiF(DE3) and grown overnight at 37° C. in 5 mL LB with 50 μg/mL ampicillin. The cultures are diluted 1/10 and OD600 measured. A bacterial volume corresponding to an OD600 of 0.03 in 5 mL is taken, centrifuged and resuspended in 100 μl of M9 medium. It is then added into 5 mL M9 containing 1 mM MgSO4, 20 μM CaCl2, 0.5 μg/mL thiamine, 0.12% casamino acids, 40 μg/mL D-L-methionine, 100 μg/mL L-asparagine, trace metals and 50 μg/mL ampicillin. This medium is supplemented with 0.5% glucose or 0.5% succinate. E. coli JF496 is grown at 37° C. for 8 hours. Samples (700-μL) are taken at 2-hour intervals and the OD600 is measured in order to determine the growth rate.
Growth conditions—as described above in Section 6.1
A selection of CLK-1 variants were constructed by site-directed mutagenesis and cloned into the JF496 system to assess their enzymatic activity relative to the wild type. The respective strains of JF496-clk-1 variants were cultured as described and the growth rate of each were measured. The results as shown in Table 4 indicate that certain residues and regions are not tolerant of amino acid substitution (amino acid substitution is indicated by one-letter codes).

Where [1] appears, read: JF496, M9 buffer containing 0.5% glucose.

B1: E. coli UbiF: E. coli UbiF expressed from a plasmid in JF496 (protein)
chain: MTNQPTEIAIVGGGMVGGALALGLAQHGFAVTVIEHAEPAPFVADSQPDVRISAISAASVSLLKGLGVWDAVQAMRCHPYRRLETWEWETAHVVFDAAELKLPLLGYMVENTVLQQALWQALEAHPKVTLRVPGSLIALHRHDDLQELELKGGEVIRAKLVIGADGANSQVRQMAGIGVHAWQYAQSCMLISVQCENDPGDSTWQQFTPDGPRAFLPLFDNWASLVWYDSPARIRQLQNMNMAQLQAEIAKHFPSRLGYVTPLAAGAFPLTRRHALQYVQPGLALVGDAAHTIHPLAGQGVNLGYRDVDALIDVLVNARSYGEAWASYPVLKRYQMRRMADNFIMQSGMDLFYAGFSNNLPPLRFMRNLGLMAAERAGVLKRQALKYALGL
modifications: E. coli; ubiF wildtype allele
notes: E. coli UbiF expressed from a plasmid in JF496
As to B1, under setting [1], the “rescue of bacterial growth under selective condition” value (“rescue … under selective condition” for short) is given as “rescued bacterial growth”.

B2: mclk-1: mouse clk-1 cDNA expressed in JF496 (protein, listed as Mus musculus)
chain: MSAAGAIAAASVGRLRTGVRRPFSEYGRGLIIRCHSSGMTLDNINRAAVDRIIRVDHAGEYGANRIYAGQMAVLGRTSVGPVIQKMWDQEKNHLKKFNELMIAFRVRPTVLMPLWNVAGFALGAGTALLGKEGAMACTVAVEESIANHYNNQIRMLMEEDPEKYEELLQVIKQFRDEELEHHDTGLDHDAELAPAYALLKRIIQAGCSAAIYLSERF
modifications: Mouse CLK-1
notes: mouse clk-1 cDNA expressed in JF496
For B2, the “rescue … under selective condition” value under setting [1] is given as “rescues bacterial growth”.

B3: C. elegans clk-1: wild-type C. elegans CLK-1 (DMQ hydroxylase) expressed from pET16 in JF496 (protein)
chain: MFRVITRGAHTAASRQALIEKIIRVDHAGELGADRIYAGQLAVLQGSSVGSVIKKMWDEEKEHLDTMERLAAKHNVPHTVFSPVFSVAAYALGVGSALLGKEGAMACTIAVEELIGQHYNDQLKELLADDPETHKELLKILTRLRDEELHHHDTGVEHDGMKAPAYSALKWIIQTGCKGAIAIAEKI
modifications: C. elegans; C. elegans CLK-1
notes: wild-type C. elegans CLK-1 (DMQ hydroxylase) expressed from pET16 in JF496
B3: the “rescue of JF496 growth defect” value (FIG. 6, JF496 transformed with C. elegans clk-1) is recorded as “able to rescue the JF496 growth defect”.

B4: hclk-1: human clk-1 cDNA expressed in JF496 (protein, listed as Homo sapiens)
chain: MSCAGAAAAPRLWRLRPGARRSLSAYGRRTSVRFRSSGMTLDNISRAAVDRIIRVDHAGEYGANRIYAGQMAVLGRTSVGPVIQKMWDQEKDHLKKFNELMVTFRVRPTVLMPLWNVLGFALGAGTALLGKEGAMACTVAVEESIAHHYNNQIRTLMEEDPEKYEELLQLIKKFRDEELEHHDIGLDHDAELAPAYAVLKSIIQAGCRVAIYLSERL
modifications: Human CLK-1
notes: human clk-1 cDNA expressed in JF496
Take B4: under setting [1], the rescuing capacity result is given as “lower than that of mclk-1 or C. elegans clk-1” and the “rescue … under selective condition” value is “rescues bacterial growth”.

B5: CDB 717: C. elegans CLK-1 variant, mutation Y119A (protein, UniProt P48376 9-187, looked up, variant Y119A)
NADPH-dependent …: AHTAASRQALIEKIIRVDHAGELGADRIYAGQLAVLQGSSVGSVIKKMWDEEKEHLDTMERLAAKHNVPHTVFSPVFSVAAYALGVGSALLGKEGAMACTIAVEELIGQHANDQLKELLADDPETHKELLKILTRLRDEELHHHDTGVEHDGMKAPAYSALKWIIQTGCKGAIAIAEKI
On to B5, for which the “Activity in JF496 system” value was “Inactive”.

B6: CDB 699: C. elegans CLK-1 variant, mutation E148A (protein, UniProt P48376 9-187, looked up, variant E148A)
NADPH-dependent …: B5 NADPH-dependent … with A111Y, E140A
On to B6, for which the “Activity in JF496 system” value is “Inactive”.

B7: CDB 707: C. elegans CLK-1 variant, mutation E147A (protein, UniProt P48376 9-187, looked up, variant E147A)
NADPH-dependent …: B5 NADPH-dependent … with A111Y, E139A
As to B7, the “Activity in JF496 system” value is listed as “Active”.

B8: CDB 691: C. elegans CLK-1 variant, mutation E147K (protein, UniProt P48376 9-187, looked up, variant E147K)
NADPH-dependent …: B5 NADPH-dependent … with A111Y, E139K
For B8, the “Activity in JF496 system” value was “Active”.
